From US20230287598A1 (TAURUS BIOSCIENCES, published 2023)
Positions count from the first letter of the chain named. In names and notes the source's numbering stands.

T1: CXCR1 (UniProt P25024 1-350, limits assumed)
T1 sequence (looked up): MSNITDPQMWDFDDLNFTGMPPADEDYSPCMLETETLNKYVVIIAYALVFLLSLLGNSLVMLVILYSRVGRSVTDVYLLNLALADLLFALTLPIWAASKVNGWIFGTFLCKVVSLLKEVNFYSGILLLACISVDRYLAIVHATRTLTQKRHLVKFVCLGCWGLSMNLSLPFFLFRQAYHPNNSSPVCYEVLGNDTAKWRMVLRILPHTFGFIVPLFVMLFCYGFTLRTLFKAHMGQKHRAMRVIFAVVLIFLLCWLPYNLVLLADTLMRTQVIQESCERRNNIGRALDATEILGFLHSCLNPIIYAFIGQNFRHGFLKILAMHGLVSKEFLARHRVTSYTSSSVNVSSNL

T2: CXCR1 (UniProt P25024 1-350, limits assumed)
T2 sequence (looked up): T1 sequence (looked up)

B1: VH4-34+CDR3-IL8_CDR1-G31DY32K_CDR2-E50S_Q5RQ6E / VL1-51 S2A, T5N, P8S, A12G, A13S, P14L, K46R, L47T, D51G, N52D, N53T IgG (antibody)
VH: QVQLREWGAGLLKPSETLSLTCAVYGGSFSDKYWSWIRQPPGKGLEWIGSINHSGSTNYNPSLKSRVTISVDTSKNQFSLKLSSVTAADTAVYYCTSVHQETKKYQSPRSAKELRCQCIKTYSKPFHPKFIKELRVIESGPHCANTEIIVKLSDGRELCLDPKENWVQRVVEKFLKRAENSGSGSYTYNYEWHVDVWGQGLLVTVSS
light: QAVLNQPSSVSGSLGQKVTISCSGSSSNIGNNYVSWYQQLPGTAPRTLIYGDTKRPSGIPDRFSGSKSGTSATLGITGLQTGDEADYYCASAEDSSSNAVFGSGTTLTVLGQPKAAPSVTLFPPSSEELQANKATLVCLISDFYPGAVTVAWKADSSPVKAGVETTTPSKQSNNKYAASSYLSLTPEQWKSHRSYSCQVTHEGSTVEKTVAPTECS
notes: also called BID 38; VH4-34 MutE IL-8 5R6E31D32K50S
B2: VH4-34+CDR3-IL8_CDR1-G31DY32K_CDR2-E50S / VL1-51 S2A, T5N, P8S, A12G, A13S, P14L, K46R, L47T, D51G, N52D, N53T IgG (antibody)
VH: QVQLQQWGAGLLKPSETLSLTCAVYGGSFSDKYWSWIRQPPGKGLEWIGSINHSGSTNYNPSLKSRVTISVDTSKNQFSLKLSSVTAADTAVYYCTSVHQETKKYQSPRSAKELRCQCIKTYSKPFHPKFIKELRVIESGPHCANTEIIVKLSDGRELCLDPKENWVQRVVEKFLKRAENSGSGSYTYNYEWHVDVWGQGLLVTVSSAS
light: B1 light
notes: also called BID 37; VH4-34 MutC IL-8 31D32K50S
B3: VH4-34+CDR3-IL8_CDR1-Cow_CDR2-Cow / VL1-51 S2A, T5N, P8S, A12G, A13S, P14L, K46R, L47T, D51G, N52D, N53T IgG (antibody)
VH: QVQLQQWGAGLLKPSETLSLTCTASGFSLSDKAVGWIRQPPGKGLEWLGSIDTGGNTGYNPSLKSRVTISVDTSKNQFSLKLSSVTAADTAVYYCTSVHQETKKYQSPRSAKELRCQCIKTYSKPFHPKFIKELRVIESGPHCANTEIIVKLSDGRELCLDPKENWVQRVVEKFLKRAENSGSGSYTYNYEWHVDVWGQGLLVTVSSAS
light: B1 light
notes: also called BID 39; VH4-34 MutD IL-8 CDR1cow CDR2cow
B4: BLV1H12 GGS3:3 Moka (antibody)
VH: QVQLRESGPSLVKPSQTLSLTCTASGFSLSDKAVGWVRQAPGKALEWLGSIDTGGNTGYNPGLKSRLSITKDNSKSQVSLSVSSVTTEDSATYYCTSVHQETKKYQSGGSGGSGGSGINVKCSLPQQCIKPCKDAGMRFGKCMNKKCRCYSGGSGGSGGSSYTYNYEWHVDVWGQGLLVTVSSAS
light: not shown
B5: BLV1H12 GLLV 3xG4S ShK (antibody)
VH: QVQLRESGPSLVKPSQTLSLTCTASGFSLSDKAVGWVRQAPGKALEWLGSIDTGGNTGYNPGLKSRLSITKDNSKSQVSLSVSSVTTEDSATYYCTSVHQETKKYQSGGGGSGGGGSGGGGSGGRSCIDTIPKSRCTAFQCKHSMKYRLSFCRKTCGTCGGGGSGGGGSGGGGSSYTYNYEWHVDVWGQGLLVTVSSAS
light: not shown
B6: VH4-34 MutE IL-8 5R6E31D32K50S (antibody, human IgG1)
VH: B1 VH
light: B1 light
B7: VH4-34 MutF IL-8 5R6E CD1cow (antibody, human IgG1)
VH: B1 VH with A23T, V24A, Y25S, G27F, F29L, Y33A, W34V, S35G, S50E
light: B1 light
B8: VH4-34+CDR3-IL8_CDR2 Cow / VL1-51 S2A, T5N, P8S, A12G, A13S, P14L, K46R, L47T, D51G, N52D, N53T IgG (antibody)
VH: B2 VH with D31G, K32Y, I48L, N52D, H53T, S54G, S56N, N58G
light: B1 light
notes: nt HC 433, LC 486
B9: VH4-34+CDR3-IL8_CDR2 E50S / VL1-51 S2A, T5N, P8S, A12G, A13S, P14L IgG (antibody)
VH: B2 VH with D31G, K32Y
light: B1 light with R46K, T47L, G51D, D52N, T53N
B10: VH4-34+CDR3-IL8 / VL1-51 S2A, T5N, P8S, A12G, A13S, P14L, K46R, L47T, D51G, N52D, N53T IgG (antibody)
VH: B2 VH with D31G, K32Y, S50E
light: B1 light
notes: nt HC 430, LC 486
B11: VH4-34+CDR3-IL8_CDR2 Cow / VL1-51 S2A, T5N, P8S, A12G, A13S, P14L, D51G, N52D, N53T IgG (antibody)
VH: B2 VH with D31G, K32Y, I48L, N52D, H53T, S54G, S56N, N58G
light: B1 light with R46K, T47L
notes: nt HC 433, LC 444
B12: VH4-34+CDR3-IL8_CDR1 Cow_CDR2 E50S / VL1-51 S2A, T5N, P8S, A12G, A13S, P14L IgG (antibody)
VH: B3 VH with L48I, D52N, T53H, G54S, N56S, G58N
light: B1 light with R46K, T47L, G51D, D52N, T53N
B13: VH4-34+CDR3-IL8_CDR1 Cow_CDR2 E50S / VL1-51 S2A, T5N, P8S, A12G, A13S, P14L, K46R, L47T, D51G, N52D, N53T IgG (antibody)
VH: B3 VH with L48I, D52N, T53H, G54S, N56S, G58N
light: B1 light
B14: VH4-34+CDR3-IL8_CDR1 G31D,Y32K_CDR2 E50S / VL1-51 S2A, T5N, P8S, A12G, A13S, P14L, D51G, N52D, N53T IgG (antibody)
VH: B2 VH
light: B1 light with R46K, T47L
B15: VH4-34+CDR3-IL8 / VL1-51 S2A, T5N, P8S, A12G, A13S, P14L, D51G, N52D, N53T IgG (antibody)
VH: B2 VH with D31G, K32Y, S50E
light: B1 light with R46K, T47L
notes: nt HC 430, LC 444
B16: VH4-34+CDR3-IL8_CDR1 Cow / VL1-51 S2A, T5N, P8S, A12G, A13S, P14L, K46R, L47T, D51G, N52D, N53T IgG (antibody)
VH: B3 VH with L48I, S50E, D52N, T53H, G54S, N56S, G58N
light: B1 light
B17: VH4-34+CDR3-IL8_CDR1 Cow / VL1-51 S2A, T5N, P8S, A12G, A13S, P14L, D51G, N52D, N53T IgG (antibody)
VH: B3 VH with L48I, S50E, D52N, T53H, G54S, N56S, G58N
light: B1 light with R46K, T47L
B18: VH4-34+CDR3-IL8_CDR2 E50S / VL1-51 S2A, T5N, P8S, A12G, A13S, P14L, K46R, L47T, D51G, N52D, N53T IgG (antibody)
VH: B2 VH with D31G, K32Y
light: B1 light
B19: VH4-34+CDR3-IL8_CDR1-Cow_CDR2-Cow / VL1-51 S2A, T5N, P8S, A12G, A13S, P14L IgG (antibody)
VH: B3 VH
light: B1 light with R46K, T47L, G51D, D52N, T53N
notes: also called BID 36; VH4-34 MutB IL-8 CDR1cow CDR2cow
B20: VH4-34+CDR3-IL8_CDR1 G31D,Y32K / VL1-51 S2A, T5N, P8S, A12G, A13S, P14L, K46R, L47T, D51G, N52D, N53T IgG (antibody)
VH: B2 VH with S50E
light: B1 light
notes: nt HC 434, LC 486
B21: VH4-34+CDR3-IL8_CDR1 G31D,Y32K / VL1-51 S2A, T5N, P8S, A12G, A13S, P14L IgG (antibody)
VH: B2 VH with S50E
light: B1 light with R46K, T47L, G51D, D52N, T53N
B22: VH4-34+CDR3-IL8_CDR1 G31D,Y32K_CDR2 E50S / VL1-51 S2A, T5N, P8S, A12G, A13S, P14L IgG (antibody)
VH: B2 VH
light: B1 light with R46K, T47L, G51D, D52N, T53N
B23: VH4-34+CDR3-IL8_CDR1-Cow / VL1-51 S2A, T5N, P8S, A12G, A13S, P14L IgG (antibody)
VH: B3 VH with L48I, S50E, D52N, T53H, G54S, N56S, G58N
light: B1 light with R46K, T47L, G51D, D52N, T53N
notes: also called BID 34
B24: VH4-34+CDR3-IL8_CDR1 Cow_CDR2 Cow / VL1-51 S2A, T5N, P8S, A12G, A13S, P14L, D51G, N52D, N53T IgG (antibody)
VH: B3 VH
light: B1 light with R46K, T47L

Molecular target: T1, CXCR1
Assay: cell-based or functional assay

Row | Binder | CXCR1 activation, luminescence at 0.4 nM IL-8 domains | CXCR1 activation, luminescence at 1.6 nM IL-8 domains | CXCR1 activation, luminescence at 6.25 nM IL-8 domains | CXCR1 activation, luminescence at 25 nM IL-8 domains | CXCR1 activation, luminescence at 100 nM IL-8 domains
1 | B1 | 6190 | 8160 | 13500 | 21000 | 25900
2 | B2 | 5420 | 5710 | 7160 | 11200 | 15500
3 | B3 | 6310 | 7400 | 10200 | 15400 | 21600

Molecular target: Kv1.3 (human (T-cells from human blood donors), UniProt P22001 1-575)
Assay: cell-based or functional assay

Chain of Kv1.3 (P22001 whole entry): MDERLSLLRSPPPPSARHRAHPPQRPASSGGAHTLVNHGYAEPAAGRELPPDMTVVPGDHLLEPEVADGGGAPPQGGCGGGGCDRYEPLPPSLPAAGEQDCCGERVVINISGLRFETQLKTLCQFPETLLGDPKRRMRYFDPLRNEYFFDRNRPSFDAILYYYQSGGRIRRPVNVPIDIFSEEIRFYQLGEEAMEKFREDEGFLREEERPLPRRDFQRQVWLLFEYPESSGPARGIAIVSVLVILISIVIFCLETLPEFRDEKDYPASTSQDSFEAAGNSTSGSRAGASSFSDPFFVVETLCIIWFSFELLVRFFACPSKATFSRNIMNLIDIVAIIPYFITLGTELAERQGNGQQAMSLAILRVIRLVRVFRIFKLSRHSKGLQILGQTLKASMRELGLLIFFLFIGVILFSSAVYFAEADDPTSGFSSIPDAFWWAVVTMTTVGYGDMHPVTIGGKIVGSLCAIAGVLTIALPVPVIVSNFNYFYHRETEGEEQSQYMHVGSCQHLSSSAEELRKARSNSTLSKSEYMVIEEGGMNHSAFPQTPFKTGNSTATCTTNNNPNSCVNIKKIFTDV

Row | Binder | EC50 (nM), inhibition of T-cell activation, IL-2 secretion, Donor 1 | EC50 (nM), inhibition of T-cell activation, IL-2 secretion, Donor 2 | EC50 (nM), inhibition of T-cell activation, TNFα secretion, Donor 1 | EC50 (nM), inhibition of T-cell activation, TNFα secretion, Donor 2
4 | B4 | 14.4 nM | 40.2 nM | 19.3 nM | 38.2 nM
5 | B5 | 0.1 nM | 0.03 nM | 6.5 nM | 0.2 nM

Molecular target: T2, CXCR1
Assay: cell-based or functional assay

Row | Binder | CXCR1 activation, luminescence, 0.1 nM IL-8 domains | CXCR1 activation, luminescence, 0.5 nM IL-8 domains | CXCR1 activation, luminescence, 2.2 nM IL-8 domains | CXCR1 activation, luminescence, 9.9 nM IL-8 domains | CXCR1 activation, luminescence, 44 nM IL-8 domains | CXCR1 activation, luminescence, 200 nM IL-8 domains
6 | B6 | 4060 luminescence | 5300 luminescence | 10300 luminescence | 17100 luminescence | 23300 luminescence | 22300 luminescence
7 | B7 | 4180 luminescence | 6620 luminescence | 13500 luminescence | 21900 luminescence | 24000 luminescence | 25000 luminescence

Molecular target: T1, CXCR1
Assay: flow cytometry, supernatant at 5 nM IgG
Description: (§1) Briefly, a cell line expressing functionally validated CXCR1 derived from U2OS cells was obtained from DiscoveRx and cultured per manufacturer’s instructions (Cat# 93-0226C3, DiscoveRx Corporation, Freemont, CA). The parental cell line U2OS was obtained from ATCC and cultured under the same conditions as the CXCR1 cells. Cell culture supernatants were then tested for binding to cells by flow cytometry. The adherent U2OS or CXCR1-U2OS cells were dissociated with Accutase (Innovative Cell Technologies, Inc., San Diego, CA), neutralized with an equal volume of media containing 10% serum, centrifuged at 1000 g, and resuspended in PBS with 2%BSA. Next, cells were dispensed into microtiter plates to achieve between 30,000 to 300,000 cells per well, centrifuged again, and resuspended in cell culture supernatant containing expressed IgG, or a dilution of IgG-containing cell culture supernatant. A fluorescent-conjugated anti-Human Fc antibody was used to detect binding of the expressed antibody to cells.
The ability of IL-8 within CDR3 in these antibodies to specifically bind CXCR1 receptor was evaluated by comparing the median fluorescence of cells expressing CXCR1 as compared to the median fluorescence of parental cells.

Row | Binder | Specific Binding (CXCR1-Cell median AFU / Parental Cell median AFU)
8 | B8 | 3
9 | B9 | 4
10 | B10 | 12
11 | B11 | 4
12 | B12 | 5
13 | B13 | 6
14 | B14 | 17
15 | B15 | 3
16 | B16 | 10
17 | B2 | 18
18 | B17 | 4
19 | B18 | 5
20 | B19 | 11
21 | B3 | 13
22 | B20 | 15
23 | B21 | 4
24 | B22 | 5
25 | B23 | 4
26 | B24 | 10

Molecular target: T1, CXCR1
Assay: flow cytometry, supernatant at 5 nM IgG
Remark: another data set of the same source
Description: as §1
The ability of IL-8 within CDR3 in these antibodies to specifically bind CXCR1 receptor was evaluated by comparing the median fluorescence of cells expressing CXCR1 as compared to the median fluorescence of parental cells. The ratio of these median AFU was calculated as previously in Table 19.

Row | Binder | Specific Binding (CXCR1-Cell median AFU / Parental Cell median AFU)
27 | B1 | 4
